Measurements reported in article PMC5417323 (Journal of Molecular Biology, 2017).
Non-standard residues stand in square brackets, D forms with d. Primed or numbered codes have the meaning given here. No end group written: not given here. *: point of attachment. FITC = O=C1OC2(c3ccc(O)cc3Oc3cc(O)ccc32)c2ccc(NC(=S)*)cc21; pY = N[C@@H](Cc1ccc(OP(=O)(O)O)cc1)C(=O)O; FITC′ = not defined here

Experiments:
[1] = biological target: the eight SFK SH2 domains; test: fluorescence polarisation
[2] = biological target: Lck SH2 domain (UniProt P06239 118-231, biotin on the Avi-tag (yeast binding assay, pull-down)); test: fluorescence polarisation
Chain of Lck SH2 domain (P06239 118-231): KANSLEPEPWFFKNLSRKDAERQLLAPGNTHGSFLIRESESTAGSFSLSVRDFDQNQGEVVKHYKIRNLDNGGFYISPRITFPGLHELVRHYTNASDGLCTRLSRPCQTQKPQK

Binder	Kd [1] [nM]	Kd [2] [nM]
EPQ[pY]EEIPIYLK-{FITC′} [EPQp…-(FITC)]	310 to 675	
{FITC}-ADND[pY]IIPLPD [(FITC)-ADNDpYIIPLPD]		955
{FITC}-TEGQ[pY]QPQPA [(FITC)-TEGQpYQPQPA]		2200
